Experimental data: patent US20140205597A1

How the values were obtained:
[1] = molecular target: analytical polyclonal antibody obtained in Example 2; assay: SPR Biacore T100, immobilized polyclonal, 500 nM ISV
[2] = molecular target: serum sample IHUS#B09032311A20; assay: ECL displacement assay, variant competes with tagged SEQ ID NO:1
[3] = molecular target: serum sample IHUS#B09032311A1; assay: as above
[4] = molecular target: serum sample IHUS#B09032311A3; assay: as above
[5] = molecular target: affinity purified antibody IHuP#002-001-ABL-08; assay: ECL bridging/competition assay, 10 ug/ml ISV vs tagged ISV

B1: Nb3.10 (VHH)
VHH: EVQLVESGGGLVQAGGSLRLSCAASRSIGRLDRMGWYRHRPGEPRELVATITGGSSINYGDSVKGRFTISIDNSKNTVYLQMNSLRPEDTAVYYCNFNKYVTSRDTWGQGTLVTVSS
**Q.** Which Binding (RU) [1] does the source give for B1 here?
**A.** Its Binding (RU) is 91 RU.

B2: Nb3.11 (VHH)
VHH: EVQLVESGGGLVQPGGSLRLSCAASRSIGRLDRMGWYRHRPGEPRELVATITGGSSINYGDSVKGRFTISIDNSKNTVYLQMNSLKPEDTAVYYCNFNKYVTSRDTWGQGTLVTVSS
**Q.** How did the Binding (RU) [1] turn out when B2 was run?
**A.** Its Binding (RU) is 88 RU.

B3: Nb3.12 (VHH)
VHH: EVQLVESGGGLVQAGGSLRLSCAASRSIGRLDRMGWYRHRPGEPRELVATITGGSSINYGDSVKGRFTISIDNSKNTVYLQMNSLRPEDTAVYYCNFNKYVTSRDTWGQGTQVTVSS
**Q.** How did the Binding (RU) [1] turn out when B3 was run?
**A.** The Binding (RU) was 86 RU.

B4: Nb3.13 (VHH)
VHH: EVQLVESGGGLVQPGGSLRLSCAASRSIGRLDRMGWYRHRPGEPRELVATITGGSSINYGDSVKGRFTISIDNSKNTVYLQMNSLRPEDTAVYYCNFNKYVTSRDTWGQGTQVTVSS
**Q.** For B4, which Binding (RU) [1] is on record?
**A.** The Binding (RU) was 90 RU.

B5: Nb3.14 (VHH)
VHH: EVQLVESGGGLVQPGGSLRLSCAASRSIGRLDRMGWYRHRPGEPRELVATITGGSSINYGDSVKGRFTISIDNSKNTVYLQMNSLRPEDTAVYYCNFNKYVTSRDTWGQGTLVQVSS
**Q.** With B5 as the binder, how does the Binding (RU) [1] read?
**A.** Its Binding (RU) is 79 RU.

B6: Nb3.15 (VHH)
VHH: EVQLVESGGGSVQPGGSLRLSCAASRSIGRLDRMGWYRHRPGEPRELVATITGGSSINYGDSVKGRFTISIDNSKNTVYLQMNSLRPEDTAVYYCNFNKYVTSRDTWGQGTLVTVSS
**Q.** B6 was tested. Which Binding (RU) [1] did it give?
**A.** Its Binding (RU) is 22 RU.

B7: Nb3.1 (VHH)
VHH: EVQLVESGGGLVQAGGSLRLSCAASRSIGRLDRMGWYRHRTGEPRELVATITGGSSINYGDFVKGRFTISIDNAKNTVYLQMNNLKPEDTAVYYCNFNKYVTSRDTWGQGTQVTVSS
**Q.** B7 was tested. Which Binding (RU) [1] did it give?
**A.** The Binding (RU) was 2 RU.

B8: Nb4.1 (VHH)
VHH: EVQLVESGGGLVQPGGSLRLSCAASGSVFKINVMAWYRQAPGKGRELVAGIISGGSTSYADSVKGRFTISRDNAKNTLYLQMNSLRPEDTAVYYCAFITTESDYDLGRRYWGQGTLVTVSS
**Q.** With B8 as the binder, how does the Binding (RU) [1] read?
**A.** The Binding (RU) was 51 RU.

B9: Nb6.2 (VHH)
VHH: EVQLVESGGGLVQPGGSLRLSCIASGLPFSTKSMGWFRQAPGKEREFVARISPGGTSRYYGDFVKGRFAISRDNAKNTTWLQMNSLKAEDTAVYYCASGERSTYIGSNYYRTNEYDYWGTGTQVTVSS
**Q.** With B9 as the binder, how does the Binding (RU) [1] read?
**A.** The Binding (RU) was 39 RU.

B10: Nb6.5 (VHH)
VHH: EVQLLESGGGLVQPGGSLRLSCAASGLPFSTKSMGWFRQAPGKGREFVSRISPGGTSRYYGDFVKGRFTISRDNSKNTLYLQMNSLRAEDTAVYYCASGERSTYIGSNYYRTNEYDYWGQGTLVTVSS
**Q.** B10 was tested. Which Binding (RU) [1] did it give?
**A.** Its Binding (RU) is 66 RU.

B11: Example 1C: wildtype VHH (SEQ ID NO: 23) (VHH)
VHH: EVQLVESGGGLVQAGGSLRLSCAASGRTFNNYAMGWFRRAPGKEREFVAAITRSGVRSGVSAIYGDSVKDRFTISRDNAKNTLYLQMNSLKPEDTAVYTCAASAIGSGALRRFEYDYSGQGTQVTVSS
**Q.** Which results are given for B11?
**A.** % reduction [2]: 53%; ECLU confirmatory assay [2]: 8680 ECLU; % reduction [3]: 4%; ECLU confirmatory assay [3]: 60 ECLU; % reduction [4]: 20%; ECLU confirmatory assay [4]: 1780 ECLU; % reduction [5]: 7.3%; ECLU confirmatory assay [5]: 2710 ECLU

B12: Example 1C: (A14P) (SEQ ID NO: 24) (VHH)
VHH: EVQLVESGGGLVQPGGSLRLSCAASGRTFNNYAMGWFRRAPGKEREFVAAITRSGVRSGVSAIYGDSVKDRFTISRDNAKNTLYLQMNSLKPEDTAVYTCAASAIGSGALRRFEYDYSGQGTQVTVSS
**Q.** With B12 as the binder, how does the % reduction [2] read?
**A.** Its % reduction is 96%.

**Q.** And the ECLU confirmatory assay [2]?
**A.** Its ECLU confirmatory assay is 668 ECLU.

**Q.** And the % reduction [3]?
**A.** The % reduction was 10%.

**Q.** What about the ECLU confirmatory assay [3] of the same binder?
**A.** Its ECLU confirmatory assay is 56 ECLU.

**Q.** What about the % reduction [4] of the same binder?
**A.** The % reduction was 91%.

**Q.** What about the ECLU confirmatory assay [4] of the same binder?
**A.** The ECLU confirmatory assay was 205 ECLU.

**Q.** What about the % reduction [5] of the same binder?
**A.** Its % reduction is 90.8%.

**Q.** And the ECLU confirmatory assay [5]?
**A.** Its ECLU confirmatory assay is 268 ECLU.

B13: Example 1C: (K83R) (SEQ ID NO: 25) (VHH)
VHH: EVQLVESGGGLVQAGGSLRLSCAASGRTFNNYAMGWFRRAPGKEREFVAAITRSGVRSGVSAIYGDSVKDRFTISRDNAKNTLYLQMNSLRPEDTAVYTCAASAIGSGALRRFEYDYSGQGTQVTVSS
**Q.** Which % reduction [2] does the source give for B13 here?
**A.** Its % reduction is 63%.

**Q.** And the ECLU confirmatory assay [2]?
**A.** Its ECLU confirmatory assay is 6910 ECLU.

**Q.** And the % reduction [3]?
**A.** The % reduction was 1%.

**Q.** What about the ECLU confirmatory assay [3] of the same binder?
**A.** The ECLU confirmatory assay was 62 ECLU.

**Q.** What about the % reduction [4] of the same binder?
**A.** Its % reduction is 37%.

**Q.** And the ECLU confirmatory assay [4]?
**A.** Its ECLU confirmatory assay is 1400 ECLU.

**Q.** What about the % reduction [5] of the same binder?
**A.** Its % reduction is 15.7%.

**Q.** What about the ECLU confirmatory assay [5] of the same binder?
**A.** Its ECLU confirmatory assay is 2460 ECLU.

B14: Example 1C: (Q108L) (SEQ ID NO: 26) (VHH)
VHH: EVQLVESGGGLVQAGGSLRLSCAASGRTFNNYAMGWFRRAPGKEREFVAAITRSGVRSGVSAIYGDSVKDRFTISRDNAKNTLYLQMNSLKPEDTAVYTCAASAIGSGALRRFEYDYSGQGTLVTVSS
**Q.** With B14 as the binder, how does the % reduction [2] read?
**A.** The % reduction was 62%.

**Q.** What about the ECLU confirmatory assay [2] of the same binder?
**A.** The ECLU confirmatory assay was 6990 ECLU.

**Q.** What about the % reduction [3] of the same binder?
**A.** Its % reduction is 5%.

**Q.** What about the ECLU confirmatory assay [3] of the same binder?
**A.** Its ECLU confirmatory assay is 59 ECLU.

**Q.** And the % reduction [4]?
**A.** Its % reduction is 31%.

**Q.** And the ECLU confirmatory assay [4]?
**A.** Its ECLU confirmatory assay is 1530 ECLU.

**Q.** What about the % reduction [5] of the same binder?
**A.** The % reduction was 13.2%.

**Q.** What about the ECLU confirmatory assay [5] of the same binder?
**A.** Its ECLU confirmatory assay is 2530 ECLU.

B15: Example 1C: (A14P, K83R, Q108L) (SEQ ID NO: 27) (VHH)
VHH: EVQLVESGGGLVQPGGSLRLSCAASGRTFNNYAMGWFRRAPGKEREFVAAITRSGVRSGVSAIYGDSVKDRFTISRDNAKNTLYLQMNSLRPEDTAVYTCAASAIGSGALRRFEYDYSGQGTLVTVSS
**Q.** What does the source list for B15?
**A.** % reduction [2]: 97%; ECLU confirmatory assay [2]: 628 ECLU; % reduction [3]: 8%; ECLU confirmatory assay [3]: 57 ECLU; % reduction [4]: 93%; ECLU confirmatory assay [4]: 156 ECLU; % reduction [5]: 89.1%; ECLU confirmatory assay [5]: 319 ECLU

B16: Example 1C: (A14P, R39Q, K83R, T91Y, Q108L) (SEQ ID NO: 28) (VHH)
VHH: EVQLVESGGGLVQPGGSLRLSCAASGRTFNNYAMGWFRQAPGKEREFVAAITRSGVRSGVSAIYGDSVKDRFTISRDNAKNTLYLQMNSLRPEDTAVYYCAASAIGSGALRRFEYDYSGQGTLVTVSS
**Q.** B16 was tested. Which % reduction [2] did it give?
**A.** Its % reduction is 97%.

**Q.** And the ECLU confirmatory assay [2]?
**A.** Its ECLU confirmatory assay is 570 ECLU.

**Q.** What about the % reduction [3] of the same binder?
**A.** The % reduction was 6%.

**Q.** And the ECLU confirmatory assay [3]?
**A.** Its ECLU confirmatory assay is 58 ECLU.

**Q.** And the % reduction [4]?
**A.** The % reduction was 90%.

**Q.** What about the ECLU confirmatory assay [4] of the same binder?
**A.** The ECLU confirmatory assay was 228 ECLU.

**Q.** What about the % reduction [5] of the same binder?
**A.** The % reduction was 91.4%.

**Q.** What about the ECLU confirmatory assay [5] of the same binder?
**A.** The ECLU confirmatory assay was 251 ECLU.
